The values below come from patent publication EP4722254A1 (Sunshine Guojian Pharmaceutical (Shanghai) Co., Ltd., dated 2026).

Values joined by “and” are separate entries in the source; they are usually repeats but may differ in a detail not shown here. Equal values may be shown once.

Assay [1] concerns the target T1, Recombinant Human-FGFR2-His protein (human, UniProt P21802-3 22-378, limits assumed).
T1 construct: Bought protein; not shown: His tag
As to the kind of experiment: ELISA, Human-FGFR2-His coated, anti-human Fc-HRP detection. (ELISA stands for enzyme-linked immunosorbent assay.)

Assay [2] concerns the target T2, PD-1 expressed on the surface of Jurkat-PD-1-NFAT-luc cells (UniProt Q15116 25-288, limits assumed).
T2 construct: whole, on cells; also called cell surface PD-1 protein
As to the kind of experiment: flow cytometry on Jurkat-PD-1-NFAT-luc cells, anti-human Fab-FITC detection. Background: A flow cytometer gives signals particle by particle.

Assay [3] deals with T2, PD-1 expressed on the surface of …. As to the kind of experiment: cell-based or functional assay.
In assay [4] the target is T3, Recombinant Human-PD-1-His protein (human, UniProt Q15116 25-167, limits assumed).
T3 construct: not shown: His tag
Put plainly: ELISA, Human-PD-1-His coated, anti-human Fc-HRP detection.

The target of assay [5] is FGFR2 on SNU-16 cells (human, UniProt P21802 22-821). Put plainly: cell-based or functional assay.
Chain of FGFR2 on SNU-16 cells (P21802 22-821): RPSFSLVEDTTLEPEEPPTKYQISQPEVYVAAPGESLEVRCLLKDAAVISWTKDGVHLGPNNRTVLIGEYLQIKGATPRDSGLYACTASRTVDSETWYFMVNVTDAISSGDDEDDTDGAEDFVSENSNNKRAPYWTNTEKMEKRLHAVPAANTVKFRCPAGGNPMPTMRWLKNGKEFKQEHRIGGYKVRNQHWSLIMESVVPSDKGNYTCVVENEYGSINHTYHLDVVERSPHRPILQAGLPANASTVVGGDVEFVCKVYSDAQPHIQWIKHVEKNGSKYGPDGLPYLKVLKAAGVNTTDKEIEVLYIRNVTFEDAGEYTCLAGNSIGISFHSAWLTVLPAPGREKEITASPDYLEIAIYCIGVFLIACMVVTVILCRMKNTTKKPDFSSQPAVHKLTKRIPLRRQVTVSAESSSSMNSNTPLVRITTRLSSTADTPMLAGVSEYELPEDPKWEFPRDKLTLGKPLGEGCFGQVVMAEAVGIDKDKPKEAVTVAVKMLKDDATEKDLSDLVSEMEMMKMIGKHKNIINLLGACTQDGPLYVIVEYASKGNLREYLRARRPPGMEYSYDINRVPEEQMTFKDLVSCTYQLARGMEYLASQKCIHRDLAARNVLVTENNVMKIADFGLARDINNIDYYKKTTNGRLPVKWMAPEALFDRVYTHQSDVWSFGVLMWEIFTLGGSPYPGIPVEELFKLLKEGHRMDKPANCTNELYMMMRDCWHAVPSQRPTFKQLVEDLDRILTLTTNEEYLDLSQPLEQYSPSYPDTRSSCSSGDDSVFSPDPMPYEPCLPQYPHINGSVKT

T2 sequence (Q15116 25-288 limits assumed): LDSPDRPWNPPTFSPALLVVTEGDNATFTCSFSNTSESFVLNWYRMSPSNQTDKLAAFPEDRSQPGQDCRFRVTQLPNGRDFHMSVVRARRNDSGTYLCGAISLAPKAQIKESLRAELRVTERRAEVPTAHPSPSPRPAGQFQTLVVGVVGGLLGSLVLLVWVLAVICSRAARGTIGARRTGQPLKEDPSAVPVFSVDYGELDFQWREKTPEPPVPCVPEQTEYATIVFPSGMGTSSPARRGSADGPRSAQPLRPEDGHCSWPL
T3 sequence (Q15116 25-167 limits assumed): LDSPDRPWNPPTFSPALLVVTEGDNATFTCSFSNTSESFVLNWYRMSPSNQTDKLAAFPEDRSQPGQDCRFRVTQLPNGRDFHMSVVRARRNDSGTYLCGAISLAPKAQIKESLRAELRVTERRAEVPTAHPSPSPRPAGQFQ
T1 sequence (P21802 other isoform, or with tags, fused parts or gaps limits assumed): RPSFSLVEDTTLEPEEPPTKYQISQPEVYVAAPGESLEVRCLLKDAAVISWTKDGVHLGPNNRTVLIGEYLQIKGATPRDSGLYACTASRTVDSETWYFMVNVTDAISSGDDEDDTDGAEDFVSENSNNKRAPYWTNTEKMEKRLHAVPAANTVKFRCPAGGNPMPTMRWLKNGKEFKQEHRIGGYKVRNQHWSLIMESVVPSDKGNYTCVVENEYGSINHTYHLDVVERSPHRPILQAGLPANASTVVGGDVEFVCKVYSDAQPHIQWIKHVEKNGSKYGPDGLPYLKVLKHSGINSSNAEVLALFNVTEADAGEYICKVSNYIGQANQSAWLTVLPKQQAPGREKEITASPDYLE

B1: anti-FGFR2/PD-1 bispecific antibody a (bispecific antibody, human IgG1, kappa)
heavy: not shown
light: EIVLTQSPATLSLSPGERATLSCRASSSVNYMYWYQQKPGQAPRPWIYLTSNRATGVPARFSGSGSGTDYTLTISSLEPEDFAVYYCQQWSSNPYTFGQGTKLEIKRTVAAPSVFIFPPSDEQLKSGTASVVCLLNNFYPREAKVQWKVDNALQSGNSQESVTEQDSKDSTYSLSSTLTLSKADYEKHKVYACEVTHQGLSSPVTKSFNRGEC
notes: Anti-FGFR2 IgG with an anti-PD-1 scFv (VL-L1-VH) on the C-terminus of each heavy chain; wild-type Fc; also called anti-FGFR2/PD-1 bispecific antibody molecule a
B1: the EC50 (commonly the concentration at which the effect is half-maximal) in assay [1] is 0.0568 nM; in assay [2], 0.482 nM; in assay [4], 0.122 nM and 0.16 nM. For the same molecule, the “IC50 for the blockade of PD-1 and PD-L1 binding (NFAT-luc reporter luminescence)” value in assay [3] amounted to 0.481 nM.

B2: anti-FGFR2/PD-1 bispecific antibody d (bispecific antibody, human IgG1, kappa)
heavy: not shown
light: B1 light
notes: Anti-FGFR2 IgG with an anti-PD-1 scFv in VH-L1-VL order on the C-terminus of each heavy chain; also called anti-FGFR2/PD-1 bispecific antibody molecule d
In the case of B2, the EC50 in assay [1] came to 0.0615 nM; in assay [4] it was 0.356 nM.

B3: anti-FGFR2/PD-1 bispecific antibody b (bispecific antibody, human IgG1, kappa)
heavy: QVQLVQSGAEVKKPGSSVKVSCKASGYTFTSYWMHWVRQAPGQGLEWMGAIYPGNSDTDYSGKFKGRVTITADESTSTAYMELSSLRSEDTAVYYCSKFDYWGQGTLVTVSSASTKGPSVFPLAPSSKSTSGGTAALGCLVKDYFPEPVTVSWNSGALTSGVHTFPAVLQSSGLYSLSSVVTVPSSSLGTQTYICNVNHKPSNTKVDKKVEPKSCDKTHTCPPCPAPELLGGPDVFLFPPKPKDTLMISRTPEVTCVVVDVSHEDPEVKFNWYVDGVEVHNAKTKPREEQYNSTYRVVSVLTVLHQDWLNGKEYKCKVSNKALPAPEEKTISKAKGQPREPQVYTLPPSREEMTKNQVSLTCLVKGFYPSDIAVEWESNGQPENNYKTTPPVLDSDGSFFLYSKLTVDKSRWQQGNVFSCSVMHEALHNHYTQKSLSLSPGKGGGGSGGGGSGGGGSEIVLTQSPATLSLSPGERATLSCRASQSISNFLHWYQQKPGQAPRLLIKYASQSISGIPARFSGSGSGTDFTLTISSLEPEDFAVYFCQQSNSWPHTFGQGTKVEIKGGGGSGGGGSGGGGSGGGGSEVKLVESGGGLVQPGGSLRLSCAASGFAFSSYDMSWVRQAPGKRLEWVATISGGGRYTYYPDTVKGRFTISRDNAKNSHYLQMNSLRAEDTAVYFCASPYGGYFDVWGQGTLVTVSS
light: B1 light
notes: also called anti-FGFR2/PD-1 bispecific antibody molecule b
With B3, the EC50 is 0.0512 nM in assay [1], 0.634 nM in assay [2] and 0.141 nM in assay [4]. The “EC50 of ADCC (NK cell killing of SNU-16 cells, LDH release)” value in assay [5] came out at 4.62 nM. Besides, in assay [3], the “IC50 for the blockade of PD-1 and PD-L1 binding (NFAT-luc reporter luminescence)” value worked out at 2.35 nM.

B4: anti-FGFR2 monoclonal antibody (antibody, human IgG1, kappa, V domains shown)
VH: QVQLVQSGAEVKKPGSSVKVSCKASGYTFTSYWMHWVRQAPGQGLEWMGAIYPGNSDTDYSGKFKGRVTITADESTSTAYMELSSLRSEDTAVYYCSKFDYWGQGTLVTVSS
VL: EIVLTQSPATLSLSPGERATLSCRASSSVNYMYWYQQKPGQAPRPWIYLTSNRATGVPARFSGSGSGTDYTLTISSLEPEDFAVYYCQQWSSNPYTFGQGTKLEIKR
notes: also called positive control anti-FGFR2 monoclonal antibody; anti-FGFR2 mAb
As to B4, in assay [1], the EC50 was 0.0392 nM and 0.0297 nM. Further, the “EC50 of ADCC (NK cell killing of SNU-16 cells, LDH release)” value in assay [5] came out at 3.03 nM.
